Data from publication PMC12122834.

Experiments:
Test in all cases: EMSA
YoaA;chi (HolC) = YoaA;chi (HolC) (Escherichia coli;Escherichia coli, UniProt P76257;P28905 1-636;1-147, |)
YoaA;chi (HolC);SSB = YoaA;chi (HolC);SSB (Escherichia coli;Escherichia …, UniProt P76257;P28905;P0AGE0 1-636;1-147;2-178, ||)
SSB deltaC1 = SSB deltaC1 (Escherichia coli, UniProt P0AGE0 2-177, del178-178)
[1] = target: YoaA;chi R128A (HolC R128A) (Escherichia coli;Escherichia coli, UniProt P76257;P28905 1-636;1-147, |R128A)
SSB = SSB (Escherichia coli, UniProt P0AGE0 2-178)
DinG;SSB = DinG;SSB (Escherichia coli;Escherichia coli, UniProt P27296;P0AGE0 1-716;2-178, |)
DinG = target: T1, DinG (Escherichia coli, UniProt P27296 1-716)
T1 sequence: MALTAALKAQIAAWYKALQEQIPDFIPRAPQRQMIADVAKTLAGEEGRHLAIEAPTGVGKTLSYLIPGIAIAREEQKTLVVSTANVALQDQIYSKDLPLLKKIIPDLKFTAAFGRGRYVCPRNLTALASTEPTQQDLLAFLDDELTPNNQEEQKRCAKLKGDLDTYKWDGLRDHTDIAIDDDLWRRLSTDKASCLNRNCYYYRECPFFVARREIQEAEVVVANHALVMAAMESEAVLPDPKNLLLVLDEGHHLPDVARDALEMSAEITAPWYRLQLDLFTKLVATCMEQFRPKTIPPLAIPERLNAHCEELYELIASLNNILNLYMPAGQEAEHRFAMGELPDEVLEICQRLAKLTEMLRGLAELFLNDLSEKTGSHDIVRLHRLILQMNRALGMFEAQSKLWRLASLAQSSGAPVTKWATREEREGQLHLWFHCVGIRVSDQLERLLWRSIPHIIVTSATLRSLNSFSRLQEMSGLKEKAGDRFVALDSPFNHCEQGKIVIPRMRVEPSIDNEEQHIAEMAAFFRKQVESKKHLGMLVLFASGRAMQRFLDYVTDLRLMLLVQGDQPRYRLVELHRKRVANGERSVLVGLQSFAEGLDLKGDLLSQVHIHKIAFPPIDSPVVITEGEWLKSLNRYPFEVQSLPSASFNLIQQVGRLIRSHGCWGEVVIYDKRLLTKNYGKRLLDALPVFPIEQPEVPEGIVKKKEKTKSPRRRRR

Measured: binding result

B1: ssT65 (S21) (ssDNA)
DNA: TTTTTTTTTTTTTTTTTTTTTTTTTTTTTTTTTTTTTTTTTTTTTTTTTTTTTTTTTTTTTTTTT
binds: all assays above
